Assays:
[1] = molecular target: Bxy_22780 E350G mutant (nucleophile mutant) (Bacteroides xylanisolvens); test: crystal structure
[2] = molecular target: Bxy_22780 wild-type (β-1,2-galactosidase from Bacteroides xylanisolvens, GH35) (Bacteroides xylanisolvens); test: crystal structure

| stoichiometry N [1] | stoichiometry N [2] | Substance |
| --- | --- | --- |
| 4 |  | Bxy_22780 E350G mutant (nucleophile mutant) (enzyme) |
|  | 4 | Bxy_22780 wild-type (β-1,2-galactosidase from Bacteroides xylanisolvens, GH35) (enzyme) |

— article doi:10.1101/2024.05.03.592134
